Experimental data: article doi:10.1101/699132 (bioRxiv, 2020)

Biological target: the molecule itself
Assay: non-reducing SDS-PAGE and immunoblot

B1: PRDX4, murine islets (enzyme, mouse (endogenous in murine islets), UniProt O08807 41-274, looked up)
chain: LESDERFRTRENECHFYAGGQVYPGEASRVSVADHSLHLSKAKISKPAPYWEGTAVINGEFKELKLTDYRGKYLVFFFYPLDFTFVCPTEIIAFGDRIEEFKSINTEVVACSVDSQFTHLAWINTPRRQGGLGPIRIPLLSDLNHQISKDYGVYLEDSGHTLRGLFIIDDKGVLRQITLNDLPVGRSVDETLRLVQAFQYTDKHGEVCPAGWKPGSETIIPDPAGKLKYFDKLN
  stoichiometry N: 2
